In US20050054833A1 (published 2005):
Positions count from the first letter of the chain named. Blank lines part the entries; values can stand above or below the binder they belong to.

Experiments:
human CD23 [1] = target: T1, human CD23 (human, UniProt P06734 1-321); experiment: apparent Kd
T1 chain: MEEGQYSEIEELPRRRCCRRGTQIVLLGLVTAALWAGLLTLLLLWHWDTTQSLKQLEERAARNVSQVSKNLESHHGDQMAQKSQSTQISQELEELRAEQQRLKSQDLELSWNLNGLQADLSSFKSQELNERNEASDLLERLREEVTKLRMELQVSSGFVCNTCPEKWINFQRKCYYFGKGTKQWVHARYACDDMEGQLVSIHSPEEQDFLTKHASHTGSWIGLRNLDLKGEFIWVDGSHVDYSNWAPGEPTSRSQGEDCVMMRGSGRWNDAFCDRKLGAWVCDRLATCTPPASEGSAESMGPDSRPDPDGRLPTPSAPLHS

human CD23 [2] = target: T1, human CD23; experiment: apparent Kd; replicate 1
human CD23 [3] = target: T1, human CD23; experiment: apparent Kd; replicate 2
human CD23 [4] = target: T1, human CD23; experiment: apparent Kd; replicate 3
human CD23 [5] = target: T1, human CD23; experiment: apparent Kd; replicate 4
p5E8G1 = experiment: apparent Kd
p5E8G1N- = experiment: apparent Kd

Kd (human CD23 [1]): 0.3 nM
B1: PRIMATIZED antibody p5E8G4PN- (antibody, V domains shown)
VH: EVQLVESGGGLAKPGGSLRLSCAASGFRFTFNNYYMDWVRQAPGQGLEWVSRISSSGDPTWYADSVKGRFTISRENAKNTLFLQMNSLRAEDTAVYYCASLTTGSDSWGQGVLVTVSS
VL: DIQMTQSPSSLSASVGDRVTITCRASQDIRYYLNWYQQKPGKAPKLLIYVASSLQSGVPSRFSGSGSGTEFTLTVSSLQPEDFATYYCLQVYSTPRTFGQGTKVEIK

Kd (human CD23 [2]): 0.3 nM | Kd (human CD23 [3]): 1 nM
B2: PRIMATIZED antibody p5E8G4P (antibody, V domains shown)
VH: B1 VH with K78N
VL: B1 VL
modifications: N-linked oligosaccharide at the asparagine of the heavy chain variable region glycosylation site (Kabat 75)

Kd (human CD23 [2]): 0.5 nM | Kd (human CD23 [3]): 1.5 nM | Kd (human CD23 [4]): 1.8 nM | Kd (human CD23 [5]): 4.4 nM
B3: primate anti-human CD23 monoclonal antibody 5E8 (antibody, V domains shown)
VH: B1 VH with K78N
VL: B1 VL
modifications: N-linked oligosaccharide at the asparagine of the heavy chain variable region glycosylation site (Kabat 75)

Kd (p5E8G1): 0.7 nM | Kd (p5E8G1N-): 0.7 nM
B4: CD23 (receptor)
chain: T1 chain
